# Measurements reported in the supplement of paper PMC9112550, “Optimization of the antimicrobial peptide Bac7 by deep mutational scanning” (BMC Biology, 2022).
# Test system: Escherichia coli TOP10
# Assay: shrunken log2 fold change of peptide-encoding DNA abundance (4.5 h post-induction vs induction); higher = less antimicrobial activity (less host growth inhibition)
# Conditions: time post-induction: 4.5 h; library: site-saturation at positions 5, 18, 19, 20
# 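Note: peptides expressed intracellularly from a pBAD plasmid library in pooled LB shake-flask culture, induced with 0.3% L-arabinose, DNA abundance read by NGS, three biological replicates, DESeq2 with apeglm shrinkage.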
row,Sequence,shrunken log2 fold change
1,RRIRRRPPRLPRPRPRPLQDPRP,0.0495
2,RRIRIRPPRLPRPRPRPAKQPRP,0.0314
3,RRIRRRPPRLPRPRPRPTHQPRP,0.414
4,RRIRARPPRLPRPRPRPYIPPRP,-0.805
5,RRIRKRPPRLPRPRPRPLEYPRP,-0.123
6,RRIRERPPRLPRPRPRPVEQPRP,-0.209
7,RRIRIRPPRLPRPRPRPELVPRP,-0.105
8,RRIRCRPPRLPRPRPRPYGMPRP,-0.0815
9,RRIRQRPPRLPRPRPRPYRNPRP,-0.0521
10,RRIRIRPPRLPRPRPRPTMYPRP,-0.769
11,RRIRDRPPRLPRPRPRPIVGPRP,0.145
12,RRIRARPPRLPRPRPRPGRLPRP,0.895
13,RRIRIRPPRLPRPRPRPVWSPRP,0.0432
14,RRIRHRPPRLPRPRPRPFEDPRP,0.0112
15,RRIRSRPPRLPRPRPRPSSPPRP,-0.561
16,RRIRVRPPRLPRPRPRPMAPPRP,0.0351
17,RRIRVRPPRLPRPRPRPAFVPRP,0.00544
18,RRIRHRPPRLPRPRPRPYLRPRP,-0.173
19,RRIRHRPPRLPRPRPRPGANPRP,-0.0811
20,RRIRERPPRLPRPRPRPMMDPRP,-0.0298
21,RRIRMRPPRLPRPRPRPLDKPRP,1.96
22,RRIRVRPPRLPRPRPRPQPMPRP,2.31
23,RRIRIRPPRLPRPRPRPFTIPRP,-0.246
24,RRIRQRPPRLPRPRPRPYWFPRP,0.00499
25,RRIRSRPPRLPRPRPRPKQKPRP,-0.000384

row,Sequence,shrunken log2 fold change
1,RRIRFRPPRLPRPRPRPTMHPRP,-0.138
2,RRIRVRPPRLPRPRPRPTDCPRP,-0.184
3,RRIRYRPPRLPRPRPRPWTDPRP,-0.038
4,RRIRHRPPRLPRPRPRPNYRPRP,-0.103
5,RRIRFRPPRLPRPRPRPQAMPRP,0.0123
6,RRIRQRPPRLPRPRPRPACGPRP,0.217
7,RRIRLRPPRLPRPRPRPHTSPRP,-0.112
8,RRIRTRPPRLPRPRPRPDAFPRP,-0.014
9,RRIRHRPPRLPRPRPRPVQVPRP,-0.162
10,RRIRIRPPRLPRPRPRPFLEPRP,-1.1
11,RRIRPRPPRLPRPRPRPDLEPRP,0.063
12,RRIRFRPPRLPRPRPRPQLTPRP,-0.527
13,RRIRLRPPRLPRPRPRPSRGPRP,0.0578
14,RRIRERPPRLPRPRPRPHSKPRP,-0.313
15,RRIRGRPPRLPRPRPRPDPHPRP,0.507
16,RRIRGRPPRLPRPRPRPACGPRP,0.967
17,RRIRFRPPRLPRPRPRPWQIPRP,-0.0302
18,RRIRLRPPRLPRPRPRPKDFPRP,0.0642
19,RRIRQRPPRLPRPRPRPGCCPRP,0.202
20,RRIRDRPPRLPRPRPRPQEEPRP,-0.0321
21,RRIRSRPPRLPRPRPRPNMSPRP,-0.315
22,RRIRIRPPRLPRPRPRPVGPPRP,0.0747
23,RRIRVRPPRLPRPRPRPYHHPRP,-0.0938
24,RRIRQRPPRLPRPRPRPDVPPRP,0.0169
25,RRIRPRPPRLPRPRPRPKFGPRP,-0.0973

row,Sequence,shrunken log2 fold change
1,RRIRHRPPRLPRPRPRPGPTPRP,0.146
2,RRIRYRPPRLPRPRPRPLHCPRP,-0.724
3,RRIRNRPPRLPRPRPRPNQNPRP,0.337
4,RRIRYRPPRLPRPRPRPHACPRP,0.0039
5,RRIRPRPPRLPRPRPRPAIEPRP,-0.0623
6,RRIRGRPPRLPRPRPRPNSKPRP,0.0993
7,RRIRFRPPRLPRPRPRPKMCPRP,-0.487
8,RRIRQRPPRLPRPRPRPAAYPRP,-0.169
9,RRIRERPPRLPRPRPRPIFCPRP,0.0456
10,RRIRNRPPRLPRPRPRPPRPPRP,0.704
11,RRIRDRPPRLPRPRPRPKVAPRP,0.458
12,RRIRMRPPRLPRPRPRPRVVPRP,0.246
13,RRIRNRPPRLPRPRPRPVACPRP,-0.0504
14,RRIRSRPPRLPRPRPRPQLMPRP,-0.1
15,RRIRARPPRLPRPRPRPARKPRP,0.898
16,RRIRCRPPRLPRPRPRPMLGPRP,-0.0961
17,RRIRIRPPRLPRPRPRPSGGPRP,0.0858
18,RRIRCRPPRLPRPRPRPVHKPRP,0.287
19,RRIRSRPPRLPRPRPRPMMRPRP,0.836
20,RRIRIRPPRLPRPRPRPQPFPRP,-0.264
21,RRIRFRPPRLPRPRPRPKVMPRP,-0.178
22,RRIRPRPPRLPRPRPRPHWIPRP,-0.212
23,RRIRPRPPRLPRPRPRPKQPPRP,0.0475
24,RRIRRRPPRLPRPRPRPAYWPRP,0.135
25,RRIRERPPRLPRPRPRPRNTPRP,-0.346

row,Sequence,shrunken log2 fold change
1,RRIRNRPPRLPRPRPRPTLVPRP,-0.0435
2,RRIRMRPPRLPRPRPRPSFYPRP,-0.29
3,RRIRTRPPRLPRPRPRPGQWPRP,0.0938
4,RRIRCRPPRLPRPRPRPDIQPRP,-0.268
5,RRIRRRPPRLPRPRPRPCRAPRP,0.182
6,RRIRVRPPRLPRPRPRPINMPRP,-0.602
7,RRIRGRPPRLPRPRPRPEESPRP,1.82
8,RRIRRRPPRLPRPRPRPTFAPRP,0.765
9,RRIRTRPPRLPRPRPRPFRCPRP,0.0246
10,RRIRNRPPRLPRPRPRPPDTPRP,-0.0361
11,RRIRYRPPRLPRPRPRPYRWPRP,-0.175
12,RRIRIRPPRLPRPRPRPNGFPRP,-0.114
13,RRIRQRPPRLPRPRPRPLWQPRP,0.296
14,RRIRARPPRLPRPRPRPHRFPRP,-0.176
15,RRIRHRPPRLPRPRPRPPGQPRP,0.0303
16,RRIRFRPPRLPRPRPRPNCPPRP,0.0451
17,RRIRKRPPRLPRPRPRPSQNPRP,0.269
18,RRIRERPPRLPRPRPRPVINPRP,-0.217
19,RRIRKRPPRLPRPRPRPPCKPRP,-0.242
20,RRIRARPPRLPRPRPRPIIIPRP,-0.235
21,RRIRNRPPRLPRPRPRPGGFPRP,0.144
22,RRIRLRPPRLPRPRPRPRNRPRP,0.267
23,RRIRHRPPRLPRPRPRPMQNPRP,-0.0144
24,RRIRNRPPRLPRPRPRPTDDPRP,0.0875
25,RRIRGRPPRLPRPRPRPWEYPRP,-0.00088

row,Sequence,shrunken log2 fold change
1,RRIRSRPPRLPRPRPRPLPVPRP,0.0687
2,RRIRHRPPRLPRPRPRPAHYPRP,-0.139
3,RRIRTRPPRLPRPRPRPFPKPRP,-0.112
4,RRIRDRPPRLPRPRPRPHDCPRP,-0.0662
5,RRIRMRPPRLPRPRPRPCCIPRP,-0.351
6,RRIRIRPPRLPRPRPRPGAWPRP,0.215
7,RRIRFRPPRLPRPRPRPKEQPRP,-0.00277
8,RRIRCRPPRLPRPRPRPPRHPRP,0.646
9,RRIRPRPPRLPRPRPRPKEPPRP,0.133
10,RRIRVRPPRLPRPRPRPGEQPRP,-0.0154
11,RRIRVRPPRLPRPRPRPDSYPRP,0.0384
12,RRIRIRPPRLPRPRPRPAGWPRP,0.582
13,RRIRMRPPRLPRPRPRPFMTPRP,0.0622
14,RRIRVRPPRLPRPRPRPDEPPRP,0.225
15,RRIRHRPPRLPRPRPRPQTEPRP,-0.102
16,RRIRDRPPRLPRPRPRPESDPRP,0.000356
17,RRIRRRPPRLPRPRPRPNRTPRP,-0.0707
18,RRIRERPPRLPRPRPRPRQPPRP,0.273
19,RRIRYRPPRLPRPRPRPPHMPRP,-0.656
20,RRIRFRPPRLPRPRPRPTVVPRP,0.174
21,RRIRERPPRLPRPRPRPFPNPRP,-0.165
22,RRIRARPPRLPRPRPRPMGSPRP,0.0355
23,RRIRHRPPRLPRPRPRPQQAPRP,-0.00588
24,RRIRTRPPRLPRPRPRPRGMPRP,0.24
25,RRIRNRPPRLPRPRPRPTFMPRP,-0.401

row,Sequence,shrunken log2 fold change
1,RRIRVRPPRLPRPRPRPLQFPRP,-0.149
2,RRIRWRPPRLPRPRPRPVKPPRP,0.539
3,RRIRARPPRLPRPRPRPDEGPRP,0.37
4,RRIRQRPPRLPRPRPRPHPNPRP,-0.389
5,RRIRMRPPRLPRPRPRPFHCPRP,0.0959
6,RRIRIRPPRLPRPRPRPCIGPRP,-0.632
7,RRIRARPPRLPRPRPRPTFVPRP,0.203
8,RRIRSRPPRLPRPRPRPPYSPRP,-0.379
9,RRIRQRPPRLPRPRPRPTESPRP,0.105
10,RRIRKRPPRLPRPRPRPWEEPRP,-0.000921
11,RRIRGRPPRLPRPRPRPAFKPRP,0.177
12,RRIRARPPRLPRPRPRPIVWPRP,0.393
13,RRIRNRPPRLPRPRPRPINWPRP,-0.133
14,RRIRCRPPRLPRPRPRPCCGPRP,-0.0934
15,RRIRKRPPRLPRPRPRPIGMPRP,0.213
16,RRIRKRPPRLPRPRPRPNYGPRP,-0.226
17,RRIRERPPRLPRPRPRPFRYPRP,-0.268
18,RRIRMRPPRLPRPRPRPGTVPRP,-0.071
19,RRIRYRPPRLPRPRPRPFNSPRP,-0.169
20,RRIRVRPPRLPRPRPRPVEIPRP,-0.0612
21,RRIRSRPPRLPRPRPRPQCAPRP,0.233
22,RRIRGRPPRLPRPRPRPVMEPRP,0.546
23,RRIRARPPRLPRPRPRPVTIPRP,-0.207
24,RRIRHRPPRLPRPRPRPLRQPRP,-0.0125
25,RRIRGRPPRLPRPRPRPEQNPRP,1.31
